# Assay results reported in article PMC3558616 (Molecular microbiology, 2012).
# Biological target: the molecule itself
# Test: SEC
protein,measurement,value
"HvJAMM2 (Haloferax volcanii JAMM/MPN+ domain protein, HVO_1016), His6-tagged (natural protein, UniProt D4GVJ3 1-161, looked up) MRLFRSREVVGIAADALDFALEASAETHPNEYMGLLRGEEARRVGVDRDGYVVTDVLIIPGTVSDPYSATVRNDLVPNDFHAVGSIHSHPNGVLRPSDADLDTFGSGRVHIIIGSPYGPDDWEAFDQSGEVRDLDVLDADLSDPESFFDFTQDDIDAELDR",stoichiometry N,2
